Reference: patent publication US5583112A, “Saponin-antigen conjugates and the use thereof” (priority 1992, dated 1996)

Experiments:
anti-lysozyme IgG = assay: Immunization of mice with QA-21-lysozyme conjugate (total anti-lysozyme IgG); assay type: in vivo, C57bl/6 mice; settings: days 0 and 14 intradermal; bled day 21
Method: The QA-21-lysozyme from Example 18 conjugate was used to immunize mice (C57bl/6), with and without added QA-21 as adjuvant. Ten nice (9 weeks of age at the beginning of the immunization) were immunized per group. Immunizations were made intradermally at day 0 and day 14 with a total volume of 0.2 ml (PBS buffer, pH 7). The vaccines contained the following dosages of antigen and adjuvant:
The mice were bled on day 21 and the anti-lysozyme IgG titers were determined. Microtitre plates (in the alternative, Co-bind® plates from Micromembranes may be used) were incubated at 4° C. overnight with 10 μg/ml of lysozyme in about 100 μl of PBS. The plates were then washed two times with PBS and blocked for one hour with 150 μl/well of 10% normal goat serum at room temperature. The plates were then washed two times with 0.05% Tween-20 in water.
The mice sera were incubated with the lysozyme coated plates as follows. The individual serum samples (10μl) diluted with 10% normal goat serum in PBS to make 100 μl, as well as serial dilutions thereof (1:10) were added to the wells and incubated for 1 hour at room temperature. The wells were then washed four times with 0.05% Tween-20. […] The conjugate was then detected by tetramethylbenzidine substrate (Bos, E.S. et al., J. Immunoassay 2:187 (1981)). After incubation, the OD450 was read. […]

[1] = system: anti-lysozyme antibodies (IgG1, IgG2B, IgG2A, IgM, IgG3); assay: Isotyping of anti-lysozyme antibodies; assay type: in vivo, C57bl/6 mice; settings: FIG. 22
Method: Next, the anti-lysozyme antibodies produced by each group of mice were isotyped. Microtitre plates were incubated at 4° C. overnight with 10 μg/ml of lysozyme in about 100 μl of PBS. The plates were then washed two times with PBS and blocked for one hour with 150 μl/well of 10% normal goat serum in PBS at room temperature. The plates were then washed two times with 0.05% Tween-20 in water.
The mice sera were incubated with the lysozyme coated plates as follows. The serum samples were tested in separate lanes for IgG1, IgG2B, IgG2A, IgM and IgG3. The individual serum samples (10 μl) were diluted with 10% normal goat serum in PBS to make 100 μl, and serial dilutions thereof (1:10) were added to the wells and incubated for 1 hour at room temperature. The wells were then washed four times with 0.05% Tween-20. […] The conjugates were then detected by adding 100 μl per well of 1 mg/ml p-nitrophenylphosphate in 0.1M borate, pH 9.0. After incubation for 6 and 24 hours at room temperature, tile OD410 was read.

Row | Substance | Anti-lysozyme antibody response (immunogenicity) (anti-lysozyme IgG) | Antibody isotypes produced [1]
1 | lysozyme-QA-21 conjugate: QA-21 coupled via glucuronic acid to lysozyme, 1:1 molar ratio | higher antibody titer than either of the groups receiving free QA-21 | 
2 | lysozyme: a poorly immunogenic, very hydrophilic protein | poorly immunogenic | only IgM antibodies were produced
